Target: Grb2 SH2 domain (BAP-tagged) (UniProt P62993 60-152, biotin on the BAP tag (in vivo biotinylation))
Test: FP

Sequence of Grb2 SH2 domain (BAP-tagged) (P62993 60-152): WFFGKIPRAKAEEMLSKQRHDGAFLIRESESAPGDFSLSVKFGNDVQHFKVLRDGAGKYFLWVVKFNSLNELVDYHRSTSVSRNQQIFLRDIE

- IC50: 770 nM
B1: Affimer Grb2 A4 (designed binder)
chain: MASNSLEIEELARFAVDEHNKKENALLEFVRVVKAKEQHVLWENAGPTMYYLTLEAKDGGKKKLYEAKVWVKHTRYEYFVYNFKELQEFKPVGDAAAAHHHHHHHH

From PMC11569188 (2024)
